Target: p53
Assay: two-hybrid

Q: Which fold increase of reporter expression over negative controls does the source give for SV40T (natural protein) here?
A: The fold increase of reporter expression over negative controls was over 130 times.

Reference: publication PMC8295636
